# Source: patent publication US20240109974A1 (SHANDONG SIMCERE BIOPHARMACEUTICAL, published 2024)
# B1: 219-Hu3 (antibody, V domains shown)
# VH: QVQLVQSGAEVKKPGSSVKVSCKASGYSFTNYWMNWVRQAPGQGLEWMGMIHPSDTETRLNQNFKDRVTITADKSTSTAYMELSSLRSEDTAVYYCARGEGLGAARSVSMDYWGQGTLVTVSS
# VL: DIQMTQSPSSLSASVGDRVTITCRASQDISNYLNWYQQKPDGTVKLLIYYTAILHSGVPSRFSGSGSGTDYSLTISSLQPEDFATYFCQQGNTLPWTFGQGTKVEIK
# notes: also called VH5 + VL5
# B2: 219-Hu5 (antibody, V domains shown)
# VH: QVQLVQSGAEVKKPGSSVKVSCKASGYSFTNYWMNWVRQAPGQGLEWMGMIHPSDTETRLNQNFKDRVTITVDKSTSTAYMELSSLRSEDTAVYYCARGEGLGAARSVSMDYWGQGTLVTVSS
# VL: DIQMTQSPSSLSASVGDRVTITCRASQDISNYLNWYQQKPDGTVKLLIYYTAILHSGVPSRFSGSGSGTDYSLTISSLQPEDFATYFCQQGNTLPWTFGQGTKVEIK
# notes: also called VH7 + VL5
# B3: 219-Hu4 (antibody, V domains shown)
# VH: QVQLVQSGAEVKKPGSSVKVSCKASGYSFTNYWMNWVKQAPGQGLEWIGMIHPSDTETRLNQNFKDKATLTVDKSTSTAYMELSSLRSEDTAVYYCARGEGLGAARSVSMDYWGQGTLVTVSS
# VL: DIQMTQSPSSLSASVGDRVTITCRASQDISNYLNWYQQKPDGTVKLLIYYTAILHSGVPSRFSGSGSGTDYSLTISSLQPEDFATYFCQQGNTLPWTFGQGTKVEIK
# notes: also called VH6 + VL5
# B4: 219-Hu2 (antibody, V domains shown)
# VH: QVQLVQSGAEVKKPGSSVKVSCKASGYSFTNYWMNWVRQAPGQGLEWMGMIHPSDTETRLNQNFKDKATITADKSTSTAYMELSSLRSEDTAVYYCARGEGLGAARSVSMDYWGQGTLVTVSS
# VL: DIQMTQSPSSLSASVGDRVTITCRASQDISNYLNWYQQKPDGTVKLLIYYTAILHSGVPSRFSGSGSGTDYSLTISSLQPEDFATYFCQQGNTLPWTFGQGTKVEIK
# notes: also called VH4 + VL5
# B5: 219-Hu1 (antibody, V domains shown)
# VH: QVQLVQSGAEVKKPGASVKVSCKASGYSFTNYWMNWVRQAPGQRLEWMGMIHPSDTETRLNQNFKDRVTITRDTSASTAYMELSSLRSEDTAVYYCARGEGLGAARSVSMDYWGQGTLVTVSS
# VL: DIQMTQSPSSLSASVGDRVTITCRASQDISNYLNWYQQKPDGTVKLLIYYTAILHSGVPSRFSGSGSGTDYSLTISSLQPEDFATYFCQQGNTLPWTFGQGTKVEIK
# notes: also called VH3 + VL5
# B6: 001-Hu5 (antibody, V domains shown)
# VH: EVQLVESGGGLVQPGGSLRLSCAASGFAFSTYDLSWVRQAPGKGLEWVAYINNGGISTYYSDTVKGRFTISRDNAKNTLYLQMNSLRAEDTAVYYCVRGPFYGSANYFDYWGQGTLVTVSS
# VL: DIQMTQSPSSLSASVGDRVTITCRTSESIYSNLPWYQQKPGKSPKLLVYDATKLAEGVPSRFSGSGSGTDYTLTISSLQPEDFATYYCQHFWVTPWTFGQGTKVEIK
# notes: Humanized form of #001; also called VH1 + VL4
# B7: 001-Hu1 (antibody, V domains shown)
# VH: EVQLVESGGGLVQPGGSLRLSCAASGFAFSTYDLSWVRQAPGKGLEWVAYINNGGISTYYSDTVKGRFTISRDNAKNTLYLQMNSLRAEDTAVYYCVRGPFYGSANYFDYWGQGTLVTVSS
# VL: DIQMTQSPSSLSASVGDRVTITCRTSESIYSNLPWYQQKPGKAPKLLLYDATKLAEGVPSRFSGSGSGTDYTLTISSLQPEDFATYYCQHFWVTPWTFGQGTKVEIK
# notes: Humanized form of #001; also called VH1 + VL1
# B8: 001-Hu4 (antibody, V domains shown)
# VH: EVQLVESGGGLVQPGGSLRLSCAASGFAFSTYDLSWVRQAPGKGLEWVAYINNGGISTYYSDTVKGRFTISRDNAKNSLYLQMNSLRAEDTAVYYCVRGPFYGSANYFDYWGQGTLVTVSS
# VL: DIQMTQSPSSLSASVGDRVTITCRTSESIYSNLPWYQQKPGKSPKLLVYDATKLAEGVPSRFSGSGSGTDYTLTISSLQPEDFATYYCQHFWVTPWTFGQGTKVEIK
# notes: Humanized form of #001; also called VH2 + VL4
# B9: 001-Hu3 (antibody, V domains shown)
# VH: EVQLVESGGGLVQPGGSLRLSCAASGFAFSTYDLSWVRQAPGKGLEWVAYINNGGISTYYSDTVKGRFTISRDNAKNTLYLQMNSLRAEDTAVYYCVRGPFYGSANYFDYWGQGTLVTVSS
# VL: DIQMTQSPSSLSASVGDRVTITCRTSESIYSNLPWYQQKPGKAPKLLIYDATKLAEGVPSRFSGSGSGTDYTLTISSLQPEDFATYYCQHFWVTPWTFGQGTKVEIK
# notes: Humanized form of #001; also called VH1 + VL3
# B10: 001-Hu2 (antibody, V domains shown)
# VH: EVQLVESGGGLVQPGGSLRLSCAASGFAFSTYDLSWVRQAPGKGLEWVAYINNGGISTYYSDTVKGRFTISRDNAKNSLYLQMNSLRAEDTAVYYCVRGPFYGSANYFDYWGQGTLVTVSS
# VL: DIQMTQSPSSLSASVGDRVTITCRTSESIYSNLPWYQQKPGKSPKLLIYDATKLAEGVPSRFSGSGSGTDFTLTISSLQPEDFATYYCQHFWVTPWTFGQGTKVEIK
# notes: Humanized form of #001; also called VH2 + VL2
# Target: T1, human TNFR2 on the surface of CHO-TNFR2 cells (human, UniProt P20333 23-461)
# T1 construct: whole, on cells
# T1 sequence (looked up): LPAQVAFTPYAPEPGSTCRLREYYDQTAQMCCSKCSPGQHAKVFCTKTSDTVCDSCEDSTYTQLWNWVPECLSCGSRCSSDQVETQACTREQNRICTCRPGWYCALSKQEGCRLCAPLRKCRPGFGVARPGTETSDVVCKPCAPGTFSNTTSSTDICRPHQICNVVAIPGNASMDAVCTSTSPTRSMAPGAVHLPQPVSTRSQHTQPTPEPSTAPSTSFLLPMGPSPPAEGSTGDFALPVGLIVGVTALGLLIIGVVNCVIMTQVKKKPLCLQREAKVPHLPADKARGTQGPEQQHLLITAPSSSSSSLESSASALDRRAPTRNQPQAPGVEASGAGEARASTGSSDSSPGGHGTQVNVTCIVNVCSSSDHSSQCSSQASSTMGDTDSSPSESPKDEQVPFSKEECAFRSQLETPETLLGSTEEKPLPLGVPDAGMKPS
# Test: competition flow cytometry on CHO-TNFR2 cells, competitor TNFα-biotin; IC50 against 219-WT
# Protocol: CHO stable cells highly expressing human TNFR2 were used for the experiment (the same as CHO-TNFR2 in Example 4). The CHO-TNFR2 cells were digested, washed twice with DPBS, then stained with Live/Dead (L/D) (20 minutes at room temperature), and plated at a density of 1×10⁵ cells/50 μl/well. A test anti-TNFR2 antibody was diluted to 6 μg/ml with a staining buffer as the starting concentration: the antibody was subjected to 3.33-fold gradient dilution, with a total of 7 concentration points. The diluted antibody was added to the plated cells at 50 μl/well, and the mixture was mixed well by gentle pipetting, and incubated at 4° C. for 30 minutes. Then the diluted 100 ng/ml of human TNFα-biotin was added at 100 μl/well, and the mixture was mixed well by gentle pipetting, and then incubated at 4° C. for 30 minutes. The mixture was washed twice with a staining buffer, and then 0.12 μg/ml PE-streptavidin (BioLegend, Cat #405204) was added at 100 μl/well; the resulting mixture was incubated at 4° C. for 30 minutes. The mixture was washed twice with a staining buffer, and then 150 μl of staining buffer was added to resuspend the cells; signals were detected by a flow cytometer (Thermo Attune NxT). The inhibitory curve of an antibody was drawn with antibody concentration as the abscissa and corresponding MFI value as the ordinate, and fitted with four parameters (GraphPad Prism9) to calculate the IC50 value. The smaller the IC50 value, the stronger the ability of an antibody to inhibit the binding of human TNFα to human TNFR2. The blocking effect of a humanized antibody was normalized to its corresponding human-murine chimeric WT antibody. The higher the percentage value, the better the inhibitory effect of the humanized antibody.
row,% Relative activity (WT antibody/test antibody),Binder
1,120%,B1
2,138%,B2
3,124%,B3
4,127%,B4
5,106%,B5

# Target: T1, human TNFR2 on the surface of CHO-TNFR2 …
# Test: flow cytometry on CHO-TNFR2 cells; EC50 against 001-WT
# Protocol: The transfected full-length plasmid of human TNFR2 was purchased from Sino Biological (Cat #HG10417-UT, NCBI Ref Seq: NM_001066.2). The experiment was conducted at a cell density within 80%. The cell medium was discarded; the cells were rinsed with PBS, and digested with 1 ml trypsin for 2 minutes; the digestion was stopped with a Ham's F12 complete medium containing 10% FBS, and then a cell suspension was made. The cell suspension was counted, and then an appropriate amount of cell suspension was centrifuged at 350×g; the supernatant was discarded; a corresponding volume of blocking solution (10% FBS+PBS) at a density of 1×10⁷ cells/ml was added to resuspend the cells, and the mixture was incubated at 4° C. for 30 minutes. After the incubation, the mixture was centrifuged at 350×g to remove the supernatant, and the cells were resuspended in a staining buffer (2% FBS+PBS) to a density of 2×10⁶ cells/ml, and spread onto a 96-well plate, with 50 μl of cell suspension added to each well for later use. The antibody was diluted with PBS for 10-fold gradient dilution from the highest concentration of 20 μg/m (twice the concentration); the diluted antibody was added to the well containing 50 μl of cell suspension, and placed on a microplate shaker for shaking at 500 rpm for 1 minute, so that the antibody was fully mixed with the cells; the mixture was incubated at 4° C. for 1 h. After the incubation, the cells were washed twice with the staining buffer, with 100 μl per well, and centrifuged at 350-g for 5 minutes, and the supernatant was discarded. The PE goat anti-Human IgG Fc antibody (ebioscience, Cat #12-4998-82) was diluted 250-fold with the staining buffer, with a volume of 100 μl per well added to the washed cell wells; the mixture was mixed evenly, and stained at 4° C. for 30 minutes. After the staining, similarly, the cells were washed twice with the staining buffer; finally, the cells were resuspended in 200 μl of staining buffer; signals were detected by a flow cytometer (Thermo Attune NxT). The stronger the signal, the stronger the binding ability of an antibody to TNFR2. The binding curve of an antibody was drawn with antibody concentration as the abscissa and corresponding mean fluorescence intensity (MFI) fold as the ordinate, and fitted with four parameters (GraphPad Prism9) to calculate the EC50 value.
row,% Relative activity (WT antibody/test antibody),Binder
1,123%,B6
2,78%,B7
3,129%,B8
4,101%,B9
5,48%,B10
